The values below come from doi:10.1101/2024.04.26.591323.

Data set [1] deals with T1, TG2 (transglutaminase 2), His6-tagged (Homo sapiens, UniProt P21980 1-687).
T1 sequence: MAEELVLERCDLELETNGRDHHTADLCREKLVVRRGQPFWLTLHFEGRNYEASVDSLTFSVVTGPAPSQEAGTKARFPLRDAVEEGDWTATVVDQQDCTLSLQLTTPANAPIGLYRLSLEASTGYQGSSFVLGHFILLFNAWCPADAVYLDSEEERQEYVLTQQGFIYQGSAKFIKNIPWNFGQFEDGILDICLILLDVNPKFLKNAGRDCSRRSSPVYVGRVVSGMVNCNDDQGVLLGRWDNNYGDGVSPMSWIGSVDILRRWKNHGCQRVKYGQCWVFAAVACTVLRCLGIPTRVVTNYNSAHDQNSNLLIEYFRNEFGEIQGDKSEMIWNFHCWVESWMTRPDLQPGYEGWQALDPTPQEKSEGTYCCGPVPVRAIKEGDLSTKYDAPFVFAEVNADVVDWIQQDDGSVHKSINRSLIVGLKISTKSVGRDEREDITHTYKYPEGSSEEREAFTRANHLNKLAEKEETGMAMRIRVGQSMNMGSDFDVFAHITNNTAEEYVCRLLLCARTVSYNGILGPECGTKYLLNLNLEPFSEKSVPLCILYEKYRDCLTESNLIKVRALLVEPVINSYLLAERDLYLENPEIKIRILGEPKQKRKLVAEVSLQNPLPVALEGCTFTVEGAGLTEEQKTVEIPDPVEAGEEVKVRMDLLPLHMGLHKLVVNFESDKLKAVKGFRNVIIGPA
The experiment in a line: pull-down.

The target of data set [2] is T2, TG2 (transglutaminase 2), tag-free (Homo sapiens, UniProt P21980 1-687).
T2 sequence: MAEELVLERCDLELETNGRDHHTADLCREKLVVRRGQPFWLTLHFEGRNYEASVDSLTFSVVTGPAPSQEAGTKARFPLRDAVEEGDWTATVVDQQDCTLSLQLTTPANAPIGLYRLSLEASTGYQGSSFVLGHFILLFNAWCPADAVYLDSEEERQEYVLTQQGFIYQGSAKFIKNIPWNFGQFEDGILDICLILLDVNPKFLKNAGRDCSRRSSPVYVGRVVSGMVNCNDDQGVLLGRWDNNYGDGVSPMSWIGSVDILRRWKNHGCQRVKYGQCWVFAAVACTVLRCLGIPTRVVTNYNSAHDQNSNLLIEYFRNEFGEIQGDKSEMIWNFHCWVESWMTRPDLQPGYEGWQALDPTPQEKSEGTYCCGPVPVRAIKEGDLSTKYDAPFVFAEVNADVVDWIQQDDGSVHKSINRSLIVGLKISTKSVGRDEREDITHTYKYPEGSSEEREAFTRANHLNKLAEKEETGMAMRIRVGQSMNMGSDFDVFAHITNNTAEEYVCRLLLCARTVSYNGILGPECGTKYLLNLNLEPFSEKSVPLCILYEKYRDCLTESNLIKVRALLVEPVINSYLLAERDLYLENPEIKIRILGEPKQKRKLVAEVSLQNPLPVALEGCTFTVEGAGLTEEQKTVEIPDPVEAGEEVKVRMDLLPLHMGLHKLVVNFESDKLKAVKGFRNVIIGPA
The experiment in a line: BLI.

B1: poly(dA) 3' End Biotin (ssDNA)
DNA: AAAAAAAAAAAAAAAAAAAAAAAAAAAAAAAAAAAAAAAAAAAAAAAAA
As to B1, the binding result in data set [1] was “no binding”.

B2: 43-mer RNA 3' End Biotin (structured_RNA)
RNA: CCUGGUUUUUAAGGAGUGUCGCCAGAGUGCCGCGAAUGAAAAAC
Molecule B2 yielded a dissociation constant (Kd) in data set [2] of 88 nM.

B3: poly(dG) 3' End Biotin (ssDNA)
DNA: GGGGGGAGGGGGGAGGGGGGAGGGGGGAGGGGGGAGGGGGGAGGGGGGA
On to B3, for which the binding result in data set [1] is “binds”.
